According to patent publication US20150080295A1 (ZEALAND PHARMA A S, published 2015):
Numbered stars: 1 amine (or outer) side, 2 acyl side, 3 side chain; on linkers, the order of the positions; unused ones are H or OH. Square brackets hold non-standard residues; d marks the D form. Side chains are listed from the residue outwards. Ends that are not written are not given here. * marks the point of attachment. γGlu = O=C(O)[C@H](CCC(=O)[*:2])N[*:1]; Palmitoyl = CCCCCCCCCCCCCCCC(=O)*; Aib = CC(C)(N)C(=O)O

Experiments:
[1] = molecular target: human glucagon-like peptide 1 receptor (human, UniProt P43220 24-463); assay: cell-based or functional assay
human glucagon-like peptide 1 receptor, sequence (P43220 24-463): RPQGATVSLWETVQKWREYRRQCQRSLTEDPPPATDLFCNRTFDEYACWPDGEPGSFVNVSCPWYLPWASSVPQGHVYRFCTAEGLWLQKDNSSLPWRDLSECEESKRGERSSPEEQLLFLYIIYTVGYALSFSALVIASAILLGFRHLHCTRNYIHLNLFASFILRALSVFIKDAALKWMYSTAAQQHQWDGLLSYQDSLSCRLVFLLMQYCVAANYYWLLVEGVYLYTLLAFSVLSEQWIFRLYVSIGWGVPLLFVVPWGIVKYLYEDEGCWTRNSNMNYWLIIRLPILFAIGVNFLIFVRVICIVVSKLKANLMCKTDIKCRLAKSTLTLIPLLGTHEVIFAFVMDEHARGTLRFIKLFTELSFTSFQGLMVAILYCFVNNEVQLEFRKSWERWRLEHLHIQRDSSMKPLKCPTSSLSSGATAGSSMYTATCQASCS

[2] = molecular target: human glucagon receptor (human, UniProt P47871 26-477); assay: cell-based or functional assay

Row | GLP-1R EC50 (nM), cAMP formation in HEK293 cells expressing human GLP-1-R [1] [nM] | GLUR EC50 (nM), cAMP formation in HEK293 cells expressing human Glucagon-R [2] [nM] | Binder
1 | 0.05 | 0.05 | H-HSQGTFTSDYSKYLDSKAAHDFVEWLLRA-NH2 [ZP2669]
2 | 0.02 | 0.07 | H-HSQGTFTSDYSKYLDSKAAQDFVQWLMNT-NH2 [ZP2667]
3 | 0.04 | 0.08 | H-HSQGTFTSDYSKYLDSLAAQDFVQWLLNT-NH2 [ZP2753]
4 | 0.08 | 0.8 | H-HSQGTFTSDYSKYLDSKAARDFVRWLKLA-NH2 [ZP2668]
5 | 0.103 | 0.085 | HSQGTFTSDYSKYLDSK([γGlu-Palmitoyl])AAHDFVEWLLRA-NH2 [ZP2872]
6 | 0.09 | 0.11 | H[dS]QGTFTSDYSKYLDSKAAHDFVEWLLRA-NH2 [ZP2866]
7 | 0.21 | 0.37 | H-HSQGTFTSDYSKYLDSKAAHDFVQWLLRA-NH2 [L006-0172]
8 | 0.57 | 0.55 | H-HSQGTFTSDYSKYLDSKAAKDFVEWLLRA-NH2 [L006-0208]
9 | 0.44 | 0.57 | H-HSQGTFTSDYSKYLDSKAAHDFVEWLMNT-NH2 [L006-0176]
10 | 0.99 | 152 | H-HSQGTFTSDYSKYLDSRAAHDFVEWLLRA-NH2 [L006-0169]
11 | 0.08 | 0.06 | H[Aib]QGTFTSDYSKYLDSKAAHDFVEWLLRA-NH2 [ZP2867]
12 | 0.14 | 0.12 | H-HSQGTFTSDYSKYLDSKAAHDFVEWLLRA-OH [L006-0296]
13 | 0.37 | 0.78 | H-HSQGTFTSDYSKYLDSKAAQDFVEWLLRA-NH2 [L006-0171]
14 | 0.76 | 1.23 | H-HSQGTFTSDYSKYLDSKAAHDFVKWLLRA-NH2 [L006-0212]
15 | 0.98 | 1.05 | H-HSQGTFTSDYSKYLDKKAAHDFVEWLLRA-NH2 [L006-0239]
16 | 0.5 | 0.79 | H-HSQGTFTSDYSKYLDSKRAHDFVEWLLRA-NH2 [L006-0170]
